According to patent US20030138429A1, “Compositions and methods for inhibiting metastasis” (priority 2001, published 2003):

Each compound was assayed against T1, DPP IV isolated from 1-LN cell membranes (Homo sapiens, UniProt P27487) (assay: Solid phase radioligand binding of Pg 2 glycoforms to immobilized DPP IV). Settings: DPP IV 1 μg/ml coated on 96-well plates, in words.
T1 construct: DPP IV from 1-LN cell membranes was purified to homogeneity as described under Experimental Procedures; endogenous in cells; host or cells: 1-LN human prostate tumor cells; Membranes were solubilized with Triton X-100; The enzyme was then purified on DEAE-Sepharose, Gly-Leu-Sepharose, concanavalin A-Sepharose and by gel filtration
T1 sequence (P27487 whole entry): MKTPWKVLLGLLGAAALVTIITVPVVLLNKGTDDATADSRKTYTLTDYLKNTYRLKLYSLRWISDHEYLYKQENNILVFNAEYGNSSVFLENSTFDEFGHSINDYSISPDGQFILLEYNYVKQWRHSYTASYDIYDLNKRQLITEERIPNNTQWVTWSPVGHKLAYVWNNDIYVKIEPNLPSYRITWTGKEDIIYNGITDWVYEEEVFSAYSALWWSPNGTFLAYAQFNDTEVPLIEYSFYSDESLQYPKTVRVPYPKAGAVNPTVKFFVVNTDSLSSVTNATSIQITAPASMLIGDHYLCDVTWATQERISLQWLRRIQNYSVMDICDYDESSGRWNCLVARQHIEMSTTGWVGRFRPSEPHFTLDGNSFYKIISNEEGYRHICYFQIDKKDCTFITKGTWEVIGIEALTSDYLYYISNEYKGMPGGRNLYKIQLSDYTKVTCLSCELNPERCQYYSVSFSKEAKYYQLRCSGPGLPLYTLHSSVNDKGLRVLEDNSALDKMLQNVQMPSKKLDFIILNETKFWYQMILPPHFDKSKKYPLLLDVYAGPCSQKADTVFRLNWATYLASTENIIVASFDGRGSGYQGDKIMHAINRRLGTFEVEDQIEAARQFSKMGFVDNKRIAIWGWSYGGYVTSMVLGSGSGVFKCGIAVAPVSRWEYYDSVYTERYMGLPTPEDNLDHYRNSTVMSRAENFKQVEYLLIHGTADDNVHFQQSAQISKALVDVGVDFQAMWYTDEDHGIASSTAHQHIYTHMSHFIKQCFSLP
Method: Purification of DPP IV from 1-LN Cell Membranes—Cells grown in 20 culture flasks (150 cm^2) were detached with 10 mM EDTA in Hanks' balanced salt solution (HBSS) and pelleted by centrifugation. The cell pellet was suspended in 10 ml of 20 mM Hepes, pH 7.2, containing 0.25 M sucrose and 0.5 mg/ml each of the following proteinase inhibitors: antipain-HCl, bestatin, chymostatin, transepoxysuccinyl-L-leucylamido-(4-guanidino)butane (E-64), leupeptin, pepstatin, O-phenanthroline, and aprotinin. Cells were lyzed by sonication on ice (five 10 s bursts with 30 s intervals). All procedures were performed at 4° C. The homogenate was centrifuged at 800×g for 15 min to remove unbroken cells and nuclei, followed by centrifugation of the supernatant at 50,000×g for 1 h. The pellet containing cell membranes was resuspended in 20 mM Tris-HCl, pH 8.0, containing 1% (v/v) Triton X-100 to solubilize membranes and centrifuged again at 50,000×g for 30 min to remove insoluble materials. DPP IV activity in this supernatant and in all the following purification steps was monitored by a chromogenic assay using the DPP IV substrate Gly-Pro-pNA [36]. The enzyme was sequentially purified to homogeneity using DEAE-Sepharose ion exchange chromatography and Gly-Leu-Sepharose affinity chromatography, followed by chromatography on concanavalin A-Sepharose and gel filtration on a Sepharose S-200 column. These steps yielded fully active DPP IV (˜40 μg/1×10^9 cells). […] A sample of the protein was analyzed by matrix-assisted laser desorption ionization-MS, and the obtained mass spectrometric peptide maps (30 peptides) were used to identify DPP IV in the OWL Protein database release 29.6 [38,39].
Solid Phase Radioligand Binding Studies—To study specific binding of Pg 2 glycoforms to immobilized DPP IV purified from 1-LN cells, 96-well strip plates were coated with DPP IV (1 μg/ml in 0.1 M sodium carbonate, pH 9.6, 200 μl/well, 37° C., 2 h). After coating, plates were washed with 200 μl of 10 mM sodium phosphate, 100 mM NaCl, pH 7.4, containing 0.05% Tween-80 (PBS-Tween) to remove unbound protein. Non-specific sites were blocked by incubating with PBS-Tween containing 2% BSA at room temperature for 1 h. Plates were rinsed twice with 200 μl of PBS-Tween, air dried, and stored at 4° C. For assays, increasing concentrations of ^125I-labeled Pg 2 glycoforms, with or without 50-fold excess of unlabeled ligands, were added to triplicate wells and incubated at 37° C. for 1 h. Following incubation, the supernatants were removed and the plates rinsed three times with 200 μl PBS-Tween. Wells were stripped from the plates and radioactivity measured. Specific binding was calculated by substraction of non-specific binding measured in the presence of unlabeled ligand.
Binding of Pg 2 Glycoforms to Immobilized DPP IV Isolated from 1-LN Cell Membranes—Once identified as a Pg receptor, DPP IV from 1-LN cell membranes was purified to homogeneity as described under Experimental Procedures. […] A blot binding assay with mAb clone in the Mr˜120,000 size range. […] DPP IV immobilization on cell culture plates and binding assays of Pg 2 glycoforms were performed as described under Experimental Procedures.

Compound	Binding to immobilized DPP IV
Pg 2α: glycoform of human plasminogen type 2 purified from plasma; 1.3 mol sialic acid/mol Pg	No specific binding
Pg 2β: glycoform of human plasminogen type 2 purified from plasma; 2.2 mol sialic acid/mol Pg	No specific binding
Pg 2γ: glycoform of human plasminogen type 2 purified from plasma; 2.95 mol sialic acid/mol Pg	bind to this DPP IV in a dose-dependent and saturable manner
Pg 2δ: glycoform of human plasminogen type 2 purified from plasma; 5.77 mol sialic acid/mol Pg	bind to this DPP IV in a dose-dependent and saturable manner
Pg 2ε: glycoform of human plasminogen type 2 purified from plasma; 5.34 mol sialic acid/mol Pg	bind to this DPP IV in a dose-dependent and saturable manner
Pg 2φ: glycoform of human plasminogen type 2 purified from plasma; 13.65 mol sialic acid/mol Pg	No specific binding

Same assay, conditions: glycoforms 0.1 μM each, increasing concentrations of L-lactose

Compound	Inhibition of binding of 125I-labeled Pg 2γ, 2δ and 2ε to DPP IV
OC[C@@H]1O[C@H](O[C@@H]2[C@@H](O)[C@H](O)C(O)O[C@H]2CO)[C@@H](O)[C@H](O)[C@@H]1O (stereo partly drawn) [L-lactose, reference compound]	progressively inhibited
